Measured values reported in patent US5574018A, “Conjugates of vitamin B12 and proteins” (Amgen Inc., priority 1994, dated 1996).

Columns and labels:
Porcine IF = target: T1, Porcine IF (Sus scrofa, UniProt A0A8D1ENZ1); test: Intrinsic factor binding affinity, competition binding assay with 57Co-cyanocobalamin (Scatchard); settings: for Kd: association constant, porcine IF, conjugate 123 nM, 30 min
T1 construct: purchased Sigma Chemical Company, St. Louis, Mo
Protocol: The binding affinity of conjugates of VB12 and therapeutic proteins to intrinsic factor (IF) was determined using a competition binding assay based on the procedure described by Mathan et al. in the Journal of Clinical Investigation, Volume 54, pages 598-608 (1974). The assay was conducted in phosphate buffered saline (PBS) containing 1 mM calcium chloride, 0.5 mM magnesium chloride and 1% by weight of bovine serum albumin (BSA) devoid of IF and cyanocobalamin (Sigma Chemical Company, St. Louis, Mo.). Porcine IF (final concentration 1.845 nM) was added to a large excess of the VB12 -protein conjugate (123 nM), together with a range of concentrations of ^57 Co-cyanocobalamin ([…] to 12.3 nM), specific activity 10-20 μCi/μg, in a final volume of 600 μl of PBS. The solution was vortexed and incubated at room temperature for thirty minutes, before adding 1 ml of freshly prepared dextran-coated charcoal (0.5% by weight of charcoal, 0.1% by weight of dextran in PBS) at 4° C. After incubation for ten minutes, the mixture was centrifuged for fifteen minutes at 1000×G (2500 rpm) and 4° C. in a IEC Centra-8R benchtop centrifuge, VWR Scientific, South Plainfield, N.J. The supernatant was decanted from the resulting pellet and assayed in a Cobra 2000 Gamma counter (Hewlett-Packard, Palo Alto, Calif.) to determine the amount of bound ^57 Co-cyanocobalamin.
The ratio of bound to free ^57 Co-cyanocobalamin versus the bound concentration of ^57 Co-cyanocobalamin was plotted according to the method of Scatchard, Annals of the New York Academy of Science, Volume 51, pages 660-672 (1949).
-Slope=-Kapp =-KL /(1+Kc [Lf ])
Kc =binding affinity of conjugate
KL =binding affinity of cyanocobalamin
[Lf ]=concentration of unbound conjugate
The use of a large excess of the conjugate permitted the value of [Lf ] to be treated as a constant (123 nM).

[1] = test system: exhypoxic polycythemic mice; test: In vivo exhypoxic polycythemic mouse assay of VB12-EPO conjugates; settings: i.p., vs EPO
Protocol: The hematopoietic activity of EPO after conjugation to 5'-O-[glutaroyl]cyanocobalamin was determined in vivo in exhypoxic polycythemic mice using the procedure of Cotes and Bingham described in Nature, Volume 191, pages 1065-1067 (1961).
The dilution of the complexes prior to intraperitoneal (i.p.) injection was based on the protein content derived from the A280 of the sample.

[2] = Stupperich and Nexo 1991; cited from earlier work
mouse bone marrow cells = test: In vitro thymidine uptake assay of VB12-G-CSF conjugates; assay type: cell-based; settings: for Biological Activity of Conjugate, % activity compared to nonconjugated protein: vs G-CSF
Protocol: The bioactivity of VB12 -G-CSF in vitro after conjugation to 5'-O-[glutaroyl]cyanocobalamin was determined by measuring the stimulated in vitro uptake of ^3 H-thymidine into mouse bone marrow cells.
Bone marrow cells were collected from the hind legs of female Balb/C mice by flushing the bone with PBS. The cells were purified on a Ficoll-Paque density gradient (Pharmacia) and cultured in McCoys' 5A medium with 10% fetal bovine serum (FBS), 10 mM sodium pyruvate, 1×minimum essential medium (MEM) amino acids, 40 micromolar (μM) of essential amino acids, 0.04% by weight of sodium bicarbonate, 1×MEM vitamin solution, 10 mM L-glutamine and 0.005% by weight of gentamicin sulfate. After incubation for two hours at 37° C. under a 5% carbon dioxide-containing atmosphere, non-adherent cells were collected in the supernatant and the number of viable cells was counted in a hemocytometer.
A standard curve was prepared over a range from 0.07 to 1500 Units of G-CSF per milliliter (U/ml), and the complexes were diluted to about 0.3 to 30 U/ml prior to being assayed. To a 96-well plate was added, in triplicate, 100 μl of the standard or test material and 100 μl of culture medium containing 4×10^4 non-adherent mouse bone marrow cells. After incubating the plates for sixty eight hours at 37° C. under a 5% carbon dioxide atmosphere, 0.5 μCi of thymidine [methyl-3H], 20 Ci/mmol (NEN, Boston, Mass.) was added to each well. The plates were incubated as before for an additional five hours. The cells were collected on filter paper, rinsed with water (ten times) and ethanol (one time), and then counted in Biofluor scintillation fluid in a beta plate scintillation counter (LKB, Piscataway, N.J., Model 1205-001).
The bioactivity of the test material, in Units per milligram (U/mg), was determined from the standard curve of the G-CSF stimulated uptake of thymidine [methyl-^3 H].

[3] = Binding analysis of recombinant rat IF (rrIF)

T1 sequence (A0A8D1ENZ1 29-425): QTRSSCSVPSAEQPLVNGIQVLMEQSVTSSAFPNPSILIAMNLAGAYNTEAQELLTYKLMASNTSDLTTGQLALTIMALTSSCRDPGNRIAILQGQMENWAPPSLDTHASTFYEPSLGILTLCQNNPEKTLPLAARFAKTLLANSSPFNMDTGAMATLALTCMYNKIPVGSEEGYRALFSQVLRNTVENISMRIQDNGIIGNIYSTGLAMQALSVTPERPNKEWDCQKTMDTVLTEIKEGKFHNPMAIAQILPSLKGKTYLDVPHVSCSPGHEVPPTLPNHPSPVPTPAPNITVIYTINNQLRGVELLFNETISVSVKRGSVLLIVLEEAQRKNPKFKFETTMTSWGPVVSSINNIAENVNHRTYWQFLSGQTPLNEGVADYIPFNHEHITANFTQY

## 5'-O-[glutaroyl]-cyanocobalamin [Example 1]
Porcine IF
  Kd: 1.35 nM

## Example 13: conjugate of 5'-O-[glutaroyl]cyanocobalamin-adipic-1,6-dihydrazide with periodate-treated EPO (through sialic acids)
[1]
  Biological Activity of Conjugate, % activity compared to nonconjugated protein: 33 ± 14%

## native human IF: native human intrinsic factor, literature value
[2]
  binding affinity (Ka) of native human IF: 2e+10 M⁻¹

B1: Example 2: conjugate of 5'-O-[glutaroyl]cyanocobalamin with G-CSF via the N-hydroxysuccinimide derivative (conjugate, UniProt P09919 31-207, looked up)
Granulocyte …: TPLGPASSLPQSFLLKCLEQVRKIQGDGAALQEKLVSECATYKLCHPEELVLLGHSLGIPWAPLSSCPSQALQLAGCLSQLHSGLFLYQGLLQALEGISPELGPTLDTLQLDVADFATTIWQQMEELGMAPALQPTQGAMPAFASAFQRRAGGVLVASHLQSFLEVSYRVLRHLAQP
modifications: cyanocobalamin conjugate
notes: conjugate of 5'-O-[glutaroyl]cyanocobalamin with G-CSF via the N-hydroxysuccinimide derivative
Porcine IF
  Kd: 2.22 nM

B2: Example 8: conjugate of 5'-O-[glutaroyl]cyanocobalamin with a polyethylene glycol derivative of G-CSF (conjugate, UniProt P09919 31-207, looked up)
Granulocyte …: TPLGPASSLPQSFLLKCLEQVRKIQGDGAALQEKLVSECATYKLCHPEELVLLGHSLGIPWAPLSSCPSQALQLAGCLSQLHSGLFLYQGLLQALEGISPELGPTLDTLQLDVADFATTIWQQMEELGMAPALQPTQGAMPAFASAFQRRAGGVLVASHLQSFLEVSYRVLRHLAQP
modifications: PEG; cyanocobalamin conjugate
notes: conjugate of 5'-O-[glutaroyl]cyanocobalamin with a polyethylene glycol derivative of G-CSF
Porcine IF
  retention of non-conjugated VB12 binding affinity: 1.6%
  Kd: 10.8 nM
Mouse bone marrow cells
  Biological Activity of Conjugate, % of G-CSF: 4.4 % of G-CSF
  Biological Activity of Conjugate, % of PEG-G-CSF: 38 % of PEG-G-CSF

B3: Example 7: conjugate of 5'-O-[glutaroyl]cyanocobalamin with G-CSF via 12-aminododecylamido-dithiopyridylpropionate (conjugate, UniProt P09919 31-207, looked up)
Granulocyte …: TPLGPASSLPQSFLLKCLEQVRKIQGDGAALQEKLVSECATYKLCHPEELVLLGHSLGIPWAPLSSCPSQALQLAGCLSQLHSGLFLYQGLLQALEGISPELGPTLDTLQLDVADFATTIWQQMEELGMAPALQPTQGAMPAFASAFQRRAGGVLVASHLQSFLEVSYRVLRHLAQP
modifications: cyanocobalamin conjugate via disulfide linker
notes: conjugate of 5'-O-[glutaroyl]cyanocobalamin with G-CSF via 12-aminododecylamido-dithiopyridylpropionate
Porcine IF
  Kd: 4 nM
Mouse bone marrow cells
  Biological Activity of Conjugate, % activity compared to nonconjugated protein: 33%

B4: Example 10: conjugate with G-CSF via N-hydroxysuccinimidyl ester of 5'-O-[glutaroyl]cyanocobalamin-8-aminocaprylic acid (conjugate, UniProt P09919 31-207, looked up)
Granulocyte …: TPLGPASSLPQSFLLKCLEQVRKIQGDGAALQEKLVSECATYKLCHPEELVLLGHSLGIPWAPLSSCPSQALQLAGCLSQLHSGLFLYQGLLQALEGISPELGPTLDTLQLDVADFATTIWQQMEELGMAPALQPTQGAMPAFASAFQRRAGGVLVASHLQSFLEVSYRVLRHLAQP
modifications: cyanocobalamin conjugate via aminocaprylic linker
notes: conjugate with G-CSF via N-hydroxysuccinimidyl ester of 5'-O-[glutaroyl]cyanocobalamin-8-aminocaprylic acid
Porcine IF
  Kd: 1.89 nM
Mouse bone marrow cells
  Biological Activity of Conjugate, % activity compared to nonconjugated protein: 60%

B5: rrIF: recombinant form of rat IF produced in Chinese hamster ovary cells (protein, UniProt P17267 19-417, looked up)
Cobalamin binding intrinsic …: STRAQRSCSVPPDQQPWVNGLQLLMENSVTESDLPNPSILIAMNLASTYNLEAQKLLTYQLMASDSADLTNGQLALTIMALTSSCRDPGSKVSILQKNMESWTPSNLGAESSSFYGPALAILALCQKNSEATLPIAVRFAKTLMMESSPFSVDTGAVATLALTCMYNRIPVGSQENYRDLFGQALKVIVDNISLRIKADGIIGDIYSTGLAMQALSVTPEQPTKEWDCEKTMYTILKEIKQGKFQNPMSIAQILPSLKGKTYLDVPQVTCGPDHEVPPTLTDYPTPVPTSISNITVIYTINNQLRGVDLLFNVTIEVSVKSGSVLLAVLEEAQRRNHMFKFETTMTSWGLIVSSINNIAENVKHKTYWEFLSGKTPLGEGVAYYIPFNYEHITANFTQY
[3]
  binding affinity (Ka) of rrIF: 8.58e+09 M⁻¹
